Laboratory results as given in the RNAGym collection of RNA variant scans (doi:10.1073/pnas.2313332121).

B1: TPR t1 (parent)
chain: GACCAAUCUGCCCUCAGAGCUCGAGAACAUCUUCGGAUGCAGAGGAGGCAGGCUUCGGUGGCGCGAUAGCGCCAACGUCCUCAACCUCCAAUGCAUCCCACCACAUGAUGAUGCCUGAAGAGCCUUGGUUUUUUG

Variants of: B1
Assay: polymerase ribozyme fitness, log enrichment relative to wild type (log ratio); higher = more active; in vitro selection for triplet polymerase activity
Outline: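 Frozen incubation at −7 °C formed the core of a single, triplicate in vitro selection round applied to PCR-built, transcribed mutant libraries of each subunit of a heterodimeric triplet polymerase ribozyme. Extended constructs were gel-excised, captured with streptavidin beads and amplified by RT-PCR, and input and output libraries were Illumina-sequenced with a filter of ≥10 input reads and ≥1 read per output. Fitness is the logarithm of genotype enrichment relative to wild-type enrichment, with inverse-variance-weighted replicate averaging, and the logarithm is base 2.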

Variant | polymerase ribozyme fitness (log ratio)
C70G A84G | -5.21
G71C U87A C123A | -2.66
C70U U112A | 0.732
C72G U92G | -3.48
C72G U92A | -3.94
C70U C97G | -5.32
G71A U133G | -0.389
C72U A74U U81C | -0.388
C70U U78A A95U U112G | -2.17
C72U C85U U109A A121G | -4.72
C72A C82G C115A C123A | -1.36
C72A G110A C115A | -2.51
C70U U87C | 0.738
G71U U130A | 0.232
G71U A91U U96C | -3.7
C72G C80U | -0.861
C72U G93U C123G | -1.42
G71U G120C | 0.378
G71A U92A A121U | -2.31
C70A U126A | -2.53
C70G A103U G120A A121C C123U | -5.54
C70G U106A | -2.52
G71C C97U G117C | -5.75
C72G A100U | -0.592

Variant | polymerase ribozyme fitness (log ratio)
C72A C99U U109G | -6.16
C70A U130C | -2.15
C72U U78G C115U U116C | -2.31
C72U A103C | -4.5
G71A U78G A84U | -2.58
G71U U78C C98U A119U | -1.19
C72U C79G G113C A118U | -5.9
C70G G135A | -3.36
C70G C89U | -2.75
C72G G93A C101A A111U | -4.69
G71C G117U | -3.08
C70U U92G A118G | -3.55
C72U A108G | -1.96
C72G C73U G128U | -3.92
C72U C73A A91U U131C U132C | -2.72
C70A G128U | -3.9
C70U C85G U87A A111G G120A | -5.35
C72U A111U | -2.46
C72A G135C | -0.133
G71A C79G G127A | -3.33
C72U A84U C101U | -0.839
C73A C102G | -5.02
C72U C104A G120A G122U U131A | -1.54
C73A C97U | -0.11

Variant | polymerase ribozyme fitness (log ratio)
G71A G127A | -2.33
G71A C94U U96A | -2.05
G71U A84G U126C U133A | -2.74
C70U U81G A84C G122A | -5.65
C70U C88A C115U | -3.07
G71U U116C | -0.726
C73A C101U G110U | -1.75
C70G U78A | -2.44
G71C C85U | -2.23
G71C C85A | -3.19
C70U A103U G120C U131C | -5.74
C72A C115A | -0.416
C72A G107A C124G | -5.06
C70U C101A | -1.9
C72A A95G C97G C104A A118U G127C | -5.66
C72U U96G | -1.42
C72U U78A | -1.19
G71C C124U | 0.16
G71A C123A | -0.22
C72G C94G G113A G122U | -3.41
C70U C72U A95C A111U | -5.58
G71A C94G | -2.57
C72G U81A U130A | -1.44
C72G C123G | 1.26

Variant | polymerase ribozyme fitness (log ratio)
G71A U96A U116A | -3.94
G71A G117A | -1.44
G71C U133A | -0.636
G71A C72G C114U | -4.69
G71C A75G | -0.0431
C70G C104U | -3.03
G71C C102U | -3.11
G71A C89G | -2.03
G71C G113A | -1.54
C70U C97U U106A G127U | -1.69
C70U C72A C85A | -2.03
C73A C79G | -2.94
C70G U78C C114U | -5.32
G71C U81G C97U U106A G120A | -3.76
C70G C124U U130C | -0.523
C72U A84G G117C | -4.48
C72U C79A U106C | -1.81
G71A A83G | -1.61
C72U G110C | -4.19
C72G U109A C123A | -5.46
C72U C79A C115U | -3.58
G71U G128U | -2.61
G71U C73G A95C C124U G128U U129C | -7.5
C72U C79G G113A | -4.23

Variant | polymerase ribozyme fitness (log ratio)
G71U A74U A95U U112G | -3.05
C70G C124G | -0.578
G71A G77A U78G | -4.6
C72U C73U | -1.09
C70G C94A | -3.62
C72A C82G A91C G93C | -3.15
C73A C101U G122A U131C | -1.18
C73A C79U C86A C115U | -3.26
G71C U81C U129C U130A | -3.37
C70U U78C C80A C97U U129A | -5.63
C72G C85G A100C A121C | -1.55
C72U C79U U96A G113U | -4.45
G71U A84C | -0.343
C72A U96A | -1.74
C70G C85A C123U U130A U133C | -3.14
C72A C114G | -2.31
C72A U112C G127C | 0.93
C72U A121C U134G | 1.71
C72G C79G U133A | -1.07
C72U G117A U133A | -1.1
G71A A111C | -0.4
G71A C79U A83G U129G | -3.32
G71A A74G C88A C97A G117C | -5.77
G71U A100U | -1.2

Variant | polymerase ribozyme fitness (log ratio)
C70G C73A | -4.66
C73A A108G U116A C123U | -5.63
G71U G117A | -1.51
G71A A83U C115U C123G G135U | -4.34
G71A C82A | -1.72
C70U C88U | -0.847
C72U C85G | -2.48
C72U U116A | -3.04
C72G C124G | 1.51
C72G C124A | 1.03
C73A C89A A118U | -1.26
C70U A83U | -0.296
C72U C76U | 0.954
C70U G113U | -2.81
C72G U130G | -1.24
C70G C85A | -4.06
C72U C97U | -1.45
C72U U92C | -0.581
C72U U92A | -3.15
C70U A74U C86A | -4.13
C72G A83G C115A | -4.27
C72G G128C | -2.25
G71A G120U | 0.349
G71U U125A | -1.21

Variant | polymerase ribozyme fitness (log ratio)
C70U C98U | -1.16
C70U U109G | -4.21
C72G U116A | -3.49
G71C C114U G122A U129A | -4.82
G71C G113A G128A | -3.16
C70G U130G | -4.08
C70U G117U A118U U130C | -3.8
C72A C123G | 1.56
C70U A121C | 1.13
G71A G110U | -2.36
C70U A90C U92C C102A G120C U132A | -5.71
G71U C80A | -5.28
C72G A108G G120A C124G U131G | -1.26
G71U C72A C89A G117A | -5.63
C70U A118U C123A U130C | -0.647
C72A G93A C98U U125G | -1.8
C72A G117U | -2.32
C72A G117C | -4.09
C72U C98A | -4.69
C73A C101G A119U | -1.93
C70U C104G | -7.05
C72U A118U U130C | 0.16
G71A C86A A111C G113C | -5.65
